Data taken from article PMC7865940, “Effect of DNA Glycosylases OGG1 and Neil1 on Oxidized G-Rich Motif in the KRAS Promoter”.

Molecular target: OGG1 (hOGG1, 8-oxoguanine glycosylase) (UniProt O15527 1-345)
Experiment: EMSA; two retarded bands (1:1 and 1:2 suggested); not cleaved; EMSA buffer A: 50 mM Tris-HCl pH 7.4, 100 mM NaCl (duplex) or 100 mM KCl (G4), 1 mM EDTA, 5 mM NaF, 1 mM Na3VO4, 1 mM DTT, 2.5 ng/uL poly[dI-dC], 8% glycerol; 8 nM DNA, 0/1/5 uM protein (also given as 1 and 5 ug), 15 min; native 5% PAGE in TBE at 20 C (Results give buffer B for the G4 incubation)
Conditions: protein: recombinant; tags: N-terminal His; label: 5'-32P on G-rich strand; annealed with complementary strand in 100 mM NaCl

Sequence of OGG1 (hOGG1, 8-oxoguanine glycosylase) (O15527 whole entry): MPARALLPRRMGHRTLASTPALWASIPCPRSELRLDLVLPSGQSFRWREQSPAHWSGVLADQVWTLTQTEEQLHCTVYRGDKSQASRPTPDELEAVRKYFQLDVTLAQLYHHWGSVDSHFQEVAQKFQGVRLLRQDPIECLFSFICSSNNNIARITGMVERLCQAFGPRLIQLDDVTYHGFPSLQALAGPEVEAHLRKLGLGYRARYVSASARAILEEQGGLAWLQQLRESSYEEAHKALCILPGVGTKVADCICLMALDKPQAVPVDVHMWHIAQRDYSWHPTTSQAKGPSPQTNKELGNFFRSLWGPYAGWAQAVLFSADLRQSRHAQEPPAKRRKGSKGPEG

B1: 32R wild-type duplex (dsDNA)
DNA 1: AGGGCGGTGTGGGAAGAGGGAAGAGGGGGAGG
DNA 2: CCTCCCCCTCTTCCCTCTTCCCACACCGCCCT
- binding result: binds
